# No end group written: not given here.
# T1: CXCR4 wt (transfected 293T cells) (human, UniProt P61073-1 1-352)
# T1 chain: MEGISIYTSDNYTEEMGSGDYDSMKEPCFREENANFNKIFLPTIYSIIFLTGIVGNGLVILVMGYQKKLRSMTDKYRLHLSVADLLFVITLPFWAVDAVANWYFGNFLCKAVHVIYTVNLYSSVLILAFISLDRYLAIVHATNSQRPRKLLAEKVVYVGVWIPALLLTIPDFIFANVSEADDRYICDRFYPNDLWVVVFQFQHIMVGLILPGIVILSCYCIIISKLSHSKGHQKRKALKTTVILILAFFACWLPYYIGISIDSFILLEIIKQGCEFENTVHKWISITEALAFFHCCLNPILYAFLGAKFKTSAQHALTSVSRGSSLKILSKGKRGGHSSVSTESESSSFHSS
# Legend:
# CXCR4 D97S [1] = experiment: 12G5 antibody competition, 293T cells transfected with CXCR4 D97S; type: binding, human; details: IC50 on CXCR4 D97S relative to wt
# Method: (§1) Fig. 4 The interactions of EPI-X4 and the EPI-X4 derivatives WSC02 and JM#21 with point-mutated CXCR4 were assessed by an antibody competition assay. Amino acid substitutions were introduced in the sequence of CXCR4 by site-directed mutagenesis, cloned into an IRES-eGFP expression vector, and transfected into 293 T cells. Afterward, cells were incubated with serially diluted EPI-X4 (a, b), WSC02 (c, d), or JM#21 (e, f) in presence of a constant concentration of CXCR4 specific antibody (clone 12G5). After 2 h, bound antibody was analyzed by flow cytometry. a, c, e) Representative dose-dependent replacement of 12G5 antibody by peptides. b, d, f) IC50 values were calculated by nonlinear regression. Shown are data derived from at least three individual experiments ± SEM. IC50 values were set to 1000 µM (EPI-X4 and WSC02) or 100 µM (JM#21) if the value exceeds the maximally used concentration. *p ≤ 0.05, ***p ≤ 0.001 (one-way ANOVA for comparison with wt). For IC50 values see Table 1. For all binding curves see also Fig. S8.
# (§2) Mutated CXCR4 constructs were transfected into 293 T cells that have a very low endogenous expression level of wild-type CXCR4. Transfected cells were then analyzed for CXCR4 surface expression (Fig. S5a) and EPI-X4 binding using a flow cytometry-based antibody competition assay (Fig. S5b, c)[33]. […]
# CXCR4 D97E + V112L [2] = experiment: 12G5 antibody competition, 293T cells transfected with CXCR4 D97E + V112L; type: binding, human; details: IC50 on CXCR4 D97E + V112L relative to wt
# Method: as §1, §2
# CXCR4 E277A [3] = experiment: 12G5 antibody competition, 293T cells transfected with CXCR4 E277A; type: binding, human; details: IC50 on CXCR4 E277A relative to wt
# Method: as §1, §2
# CXCR4 D262A [4] = experiment: 12G5 antibody competition, 293T cells transfected with CXCR4 D262A; type: binding, human; details: IC50 on CXCR4 D262A relative to wt
# Method: as §1, §2
# CXCR4 V112A [5] = experiment: 12G5 antibody competition, 293T cells transfected with CXCR4 V112A; type: binding, human; details: IC50 on CXCR4 V112A relative to wt
# Method: as §1, §2
# CXCR4 D97E [6] = experiment: 12G5 antibody competition, 293T cells transfected with CXCR4 D97E; type: binding, human; details: IC50 on CXCR4 D97E relative to wt
# Method: as §1, §2
# CXCR4 D97E + V112A [7] = experiment: 12G5 antibody competition, 293T cells transfected with CXCR4 D97E + V112A; type: binding, human; details: IC50 on CXCR4 D97E + V112A relative to wt
# Method: as §1, §2
# [8] = system: CXCR4 D97E + V112A + L41A; experiment: 12G5 antibody competition, 293T cells transfected with CXCR4 D97E + V112A + L41A; type: binding, human; details: IC50 on CXCR4 D97E + V112A + L41A relative to wt
# Method: as §1, §2
# CXCR4 V112A + L41A [9] = experiment: 12G5 antibody competition, 293T cells transfected with CXCR4 V112A + L41A; type: binding, human; details: IC50 on CXCR4 V112A + L41A relative to wt
# Method: as §1, §2
# CXCR4 L41A [10] = experiment: 12G5 antibody competition, 293T cells transfected with CXCR4 L41A; type: binding, human; details: IC50 on CXCR4 L41A relative to wt
# Method: as §1, §2
# CXCR4 D187E [11] = experiment: 12G5 antibody competition, 293T cells transfected with CXCR4 D187E; type: binding, human; details: IC50 on CXCR4 D187E relative to wt
# Method: as §1, §2
# [12] = biological target: T2, C-X-C motif chemokine receptor 4 (CXCR4) on SupT1 cells (human (endogenous in SupT1), UniProt P61073 1-352); experiment: flow cytometry on cells; 12G5 antibody competition on SupT1 cells; peptides in PBS with APC-conjugated 12G5 at a concentration close to its EC50, 4 °C, 2 h; MFI normalized to PBS control; IC50 by nonlinear regression; details: one partner purified
# T2 construct: CXCR4 as expressed on SupT1 cells; source: endogenous, on SupT1 cells
# CXCR4 L41A [13] = biological target: CXCR4 L41A (human, UniProt P61073-1 1-352, L41A); experiment: FACS
# Chain of CXCR4 L41A (human, UniProt P61073-1 1-352, L41A) (P61073 whole entry L41A): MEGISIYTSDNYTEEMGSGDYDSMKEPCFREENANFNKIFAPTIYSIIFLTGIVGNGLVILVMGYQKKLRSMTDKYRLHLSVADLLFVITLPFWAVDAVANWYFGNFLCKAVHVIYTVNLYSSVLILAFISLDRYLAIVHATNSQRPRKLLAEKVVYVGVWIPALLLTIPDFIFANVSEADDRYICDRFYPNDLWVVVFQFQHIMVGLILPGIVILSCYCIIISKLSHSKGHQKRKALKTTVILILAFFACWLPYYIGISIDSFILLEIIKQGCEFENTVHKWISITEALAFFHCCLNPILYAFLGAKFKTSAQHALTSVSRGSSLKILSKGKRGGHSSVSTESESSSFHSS
# CXCR4 D97E [14] = biological target: CXCR4 D97E (human, UniProt P61073-1 1-352, D97E); experiment: FACS
# Chain of CXCR4 D97E (human, UniProt P61073-1 1-352, D97E) (P61073 whole entry D97E): as the sequence (P61073 whole entry L41A) above, with A41L, D97E counted along it
# CXCR4 D187E [15] = biological target: CXCR4 D187E (human, UniProt P61073-1 1-352, D187E); experiment: FACS
# Chain of CXCR4 D187E (human, UniProt P61073-1 1-352, D187E) (P61073 whole entry D187E): as the sequence (P61073 whole entry L41A) above, with A41L, D187E counted along it
# CXCR4 D97E + V112A [16] = biological target: CXCR4 D97E + V112A (human, UniProt P61073-1 1-352, D97E | V112A); experiment: FACS
# Chain of CXCR4 D97E + V112A (human, UniProt P61073-1 1-352, D97E | V112A) (P61073 whole entry D97E/V112A): as the sequence (P61073 whole entry L41A) above, with A41L, D97E, V112A counted along it
# CXCR4 V112A [17] = biological target: CXCR4 V112A (human, UniProt P61073-1 1-352, V112A); experiment: FACS
# CXCR4 D262A [18] = biological target: CXCR4 D262A (human, UniProt P61073-1 1-352, D262A); experiment: FACS
# [19] = biological target: T1, CXCR4 wt (transfected 293T cells); experiment: FACS
# CXCR4 D97E + V112L [20] = biological target: CXCR4 D97E + V112L (human, UniProt P61073-1 1-352, D97E | V112L); experiment: FACS
# Chain of CXCR4 D97E + V112L (human, UniProt P61073-1 1-352, D97E | V112L) (P61073 whole entry D97E/V112L): as the sequence (P61073 whole entry L41A) above, with A41L, D97E, V112L counted along it
# CXCR4 D97S [21] = biological target: CXCR4 D97S (human, UniProt P61073-1 1-352, D97S); experiment: FACS
# [22] = biological target: CXCR4 D97E + V112A + L41A (human, UniProt P61073-1 1-352, L41A | D97E | V112A); experiment: FACS
# CXCR4 D97Q = CXCR4 D97Q (human, UniProt P61073-1 1-352, D97Q); experiment: FACS
# CXCR4 D97T = CXCR4 D97T (human, UniProt P61073-1 1-352, D97T); experiment: FACS
# CXCR4 E288A = CXCR4 E288A (human, UniProt P61073-1 1-352, E288 to Ala); experiment: FACS
# CXCR4 D97N = CXCR4 D97N (human, UniProt P61073-1 1-352, D97N); experiment: FACS
# CXCR4 V112L = CXCR4 V112L (human, UniProt P61073-1 1-352, V112L); experiment: FACS
# Chain of CXCR4 V112L (P61073 whole entry V112L): as the sequence (P61073 whole entry L41A) above, with A41L, V112L counted along it
# CXCR4 E288D = CXCR4 E288D (human, UniProt P61073-1 1-352, E288 to Asp); experiment: FACS
# Chain of CXCR4 E288D (P61073 whole entry E288D): as the sequence (P61073 whole entry L41A) above, with A41L, E288D counted along it
# CXCR4 E277A [23] = biological target: CXCR4 E277A (human, UniProt P61073-1 1-352, E277A); experiment: FACS
# Chain of CXCR4 E277A (human, UniProt P61073-1 1-352, E277A) (P61073 whole entry E277A): as the sequence (P61073 whole entry L41A) above, with A41L, E277A counted along it
# CXCR4 V112A + L41A [24] = biological target: CXCR4 V112A + L41A (human, UniProt P61073-1 1-352, L41A | V112A); experiment: FACS
# Chain of CXCR4 V112A + L41A (human, UniProt P61073-1 1-352, L41A | V112A) (P61073 whole entry L41A/V112A): as the sequence (P61073 whole entry L41A) above, with V112A counted along it
molecule,measurement,setting,value
"LVRYTKKVPQVSTPTL [EPI-X4, 16-mer fragment of albumin, endogenous antagonist and inverse agonist of CXCR4]",Fold change,CXCR4 D97S [1],112
same,Fold change,CXCR4 D97E + V112L [2],32
same,Fold change,CXCR4 E277A [3],1.3
same,Fold change,CXCR4 D262A [4],0.7
same,Fold change,CXCR4 V112A [5],1.6
same,Fold change,CXCR4 D97E [6],18
same,Fold change,CXCR4 D97E + V112A [7],2.6
same,Fold change,[8],7
same,Fold change,CXCR4 V112A + L41A [9],11
same,Fold change,CXCR4 L41A [10],19
same,Fold change,CXCR4 D187E [11],1.2
"IVRWSKKVP-NH2 (WSC02 truncated by three residues; source: synthetic peptide (Fmoc solid-phase synthesis, HPLC-purified)) [WSC02 408–416-NH2]",IC50,[12],312 nM
"ILRWSRKLPCVS (source: synthetic peptide (Fmoc solid-phase synthesis, HPLC-purified)) [EPI-X4 JM#21]",IC50,CXCR4 L41A [13],720 nM
same,IC50,CXCR4 D97E [14],1910 nM
same,IC50,CXCR4 D187E [15],310 nM
same,IC50,CXCR4 D97E + V112A [16],470 nM
same,IC50,CXCR4 V112A [17],3450 nM
same,IC50,CXCR4 D262A [18],230 nM
same,IC50,[19],660 nM
same,IC50,CXCR4 D97E + V112L [20],370 nM
same,IC50,CXCR4 D97S [21],5390 nM
same,IC50,[22],400 nM
same,IC50,CXCR4 D97Q,8050 nM
same,IC50,CXCR4 D97T,3830 nM
same,IC50,CXCR4 E288A,86400 nM
same,IC50,CXCR4 D97N,11000 nM
same,IC50,CXCR4 V112L,410 nM
same,IC50,CXCR4 E288D,14200 nM
same,IC50,CXCR4 E277A [23],280 nM
same,IC50,[12],145 nM
"LVRYTKKVP-NH2 (source: synthetic peptide (Fmoc solid-phase synthesis, HPLC-purified)) [EPI-X4 408–416-NH2]",IC50,[12],1030 nM
"ILRWSRK-NH2 (JM#21 truncated by five residues; source: synthetic peptide (Fmoc solid-phase synthesis, HPLC-purified)) [EPI-X4 JM#21 408–414-NH2]",IC50,[12],157 nM
"LVRYTKK-NH2 (source: synthetic peptide (Fmoc solid-phase synthesis, HPLC-purified)) [EPI-X4 408–414-NH2]",IC50,[12],954 nM
"ILRWSRKLP-NH2 (JM#21 truncated by three residues; source: synthetic peptide (Fmoc solid-phase synthesis, HPLC-purified)) [JM#21 408–416-NH2]",IC50,[12],262 nM
"IVRWSKK-NH2 (WSC02 truncated by five residues; source: synthetic peptide (Fmoc solid-phase synthesis, HPLC-purified)) [WSC02 408–414-NH2]",IC50,[12],469 nM
"IVRWSKKVPCVS (also called EPI-X4 WSC02; source: synthetic peptide (Fmoc solid-phase synthesis, HPLC-purified)) [WSC02]",IC50,CXCR4 L41A [13],1710 nM
same,IC50,CXCR4 D97E [14],9540 nM
same,IC50,CXCR4 D187E [15],490 nM
same,IC50,CXCR4 D97E + V112A [16],1690 nM
same,IC50,CXCR4 V112A [17],670 nM
same,IC50,CXCR4 V112A + L41A [24],4700 nM
same,IC50,CXCR4 D262A [18],520 nM
same,IC50,[19],1130 nM
same,IC50,CXCR4 D97E + V112L [20],2000 nM
same,IC50,CXCR4 D97S [21],20400 nM
same,IC50,[22],5770 nM
same,IC50,CXCR4 D97Q,> 100000 nM
same,IC50,CXCR4 D97T,35400 nM
same,IC50,CXCR4 E288A,> 100000 nM
same,IC50,CXCR4 D97N,527000 nM
same,IC50,CXCR4 V112L,420 nM
same,IC50,CXCR4 E288D,83200 nM
same,IC50,CXCR4 E277A [23],770 nM
same,IC50,[12],539 nM

# From article PMC8458281, “Computational modeling and experimental validation of the EPI-X4/CXCR4 complex allows rational design of small peptide antagonists” (Communications Biology, 2021)
